According to the DeepSol protein solubility set:

assay: soluble on expression in E. coli; label from the status in PepcDB or PDB records

| Sequence | soluble on expression in E. coli |
| --- | --- |
| SALTIFSVKDPQNSLWHSTNAEEIQQQLNAKGVRFERWQADRDLGAAPTAETVIAAYQHAIDKLVAEKGYQSWDVISLRADNPQKEALREKFLNEHTHGEDEVRFFVEGAGLFCLHIGDEVFQVLCEKNDLISVPAHTPHWFDMGSEPNFTAIRIFDNPEGWIAQFTGDDIASAYPRLA | soluble |
| TEQKQKHMEQLSDKNGIISALAFDQRGALKRLMAKYQSEEPTVSQIEALKVLVAEELTPYASSMLLDPEYGLPATKVLDDNAGLLLAYEKTGYDTSSTKRLPDCLDIWSAKRIKEEGADAVKFLLYYDVDSSDEVNEEKEAYIERIGSECVAEDIPFFLEILSYDEKITDSSGIEYAKIKPRKVIEAMKVFSNPRFNIDVLKVEVPVNMDYVEGFAQGETAYNKATAAAYFREQDQATLLPYIFLSAGVPAQLFQETLVFAKEAGAKFNGVLCGRATWAGSVKEYVEKGEAGARQWLRTIGFQNIDELNKILQKTATSWKE | soluble |
| MSLEPYRPICQNRPICGKIPRLNLTEGDTVLDREGYRPNVGIILINERNEVFWGKRVREHSWQFPQGGIKPGESPETAMYRELYEEVGLLPQHVKIVGRTRDWLRYDVPNNWVRREWRGSYRGQKQIWYLLRLTGRDCDVNLRATRHPEFDGWRWHQYWAPVDEVIDFKRDVYLEALKELSSRFLRGMESYEDFAARQPSGNREGHHHHHH | soluble |
| MGHHHHHHSHMRKNESYLNQPAPPIPIPTLSLMGGCREHFENHWKGRARWLMPVIPALWEAKAGRSPEVRSSKPAWPTWRNPIFTKNTKISQVLELFLNYQSLICALEKQKRQKGSLAIFCWSFQGGCVSKRPDVPSLKSQKPKRKRITGRKRLSKGFWSLLFSNLGRF | not soluble |
| MAHHHHHHMEDTINVFGRGTPAGEAIYRCYVAPSKPSTLDPQLAALLARRRQEREAAEAAQAHPKPIPKSKAPVHRPRVGMGKRPTEEEYARWRLQHIPHRRSKAAIEAEEEAHRWVPPPVSERFARPAITDAEKDRLADVMAYGAELPKPKEFTGVQRARFHRLEPRAELEDRFTKLRQTAQEVQSELAQLRQSAPGAGASLPSGGRVVESVSDPQARLSQRRSCGGGGDPATASPCPLASAASPGAAAARDVLSIGGTRVGRQGDSKMSTIERCRQERELQSHLGTVIAEMEAVDRELNRLPISS | soluble |
| MDMKRRIHLELRNRTPAAVRELVLDNCKAMDGKIEGLTDEFVNLEFLSLISVGLFSVSDLPKLPKLKKLELSENRIFGGLDRLAEELPSLTHLNLSGNNLKDISTLEPLKRLDCLKSLDLFGCEVTNRSDYRETVFRLLPQLSYLDGYDREDQEAPDSDVEVDSVEEAPDSDGEVDGVDKEEEDEEGEDEEEEEDEDGEEEEDEDEEDEDEDEDVEGEDDEDEVSGEEEEFGHDGEVDEDEEDEDEDEDEEEEESGKGEKRKRETDDEGEDD | soluble |
| MYKEDTIAAISTPHGAGGVGIIRISGDKAFEIAERIFRGKKDFKLIRSHTINYGKIVNPENGAVLDEVLLSKMEKPKTFTREDVVEINCHGGMVVLKNILELCIKEGARLAEPGEFTKRAFLNGRIDLSQAEAVIDLINSKTNESSKAAISQLEGKLSRKIKDARSKLIELLAHIEVTVDYPEHDIEEITGNMVYEEIGKIKEKLCDIVKSFERGRIIREGIDAVIIGKPNVGKSSLLNELSGKSKAIVTDIPGTTRDIIEEYININGIPLRIIDTAGIRETEDVVEKIGVEKTHRAIDEADLVIMMIDAKRGMDEDDNRILTMLGDKKLIILINKIDLVDEKQINEIESLLKGRKCIRTSVKEGTGISELENAITELFVQGEVSVNEEILLTNIRHKNLIDMAISSIEKAMESIDGSMPLDLVSIDITDAADYLGQITGESVSEDVMHEIFSKFCLGK | not soluble |
| MGKVYVFDHPLIQHKLTYIRDKNTGTKEFRELVDEVATLMAFEITRDLPLEEVEIETPVSKARAKVIAGKKLGVIPILRAGIGMVDGILKLIPAAKVGHIGLYRDPQTLKPVEYYVKLPSDVEERDFIIVDPMLATGGSAVAAIDALKKRGAKSIKFMCLIAAPEGVKAVETAHPDVDIYIAALDERLNDHGYIVPGLGDAGDRLFGTK | soluble |
| MSLADVDTGTLTIKGNIAESPCKFEAGGDSVSINMPTVPTSVFEGKAKYSTYDDAVGVTSSMLKISCPKEVAGVKLSLITNDKITGNDKAIASSNDTVGYYLYLGDNSDVLDVSAPFNIESYKTAEGQYAIPFKAKYLKLTDNSVQSGDVLSSLVMRVAQDEGHHHHHH | soluble |
| SESICNSLNSKLEPTLENLENLDVSAFQAPEDLLDGCRIYLCGFSGRKLDKLRRLINSGGGVRFNQLNEDVTHVIVGDYDDELKQFWNKSAHRPHVVGAKWLLECFSKGYMLSEEPYIH | soluble |
| MTIAKDYRTIYRNQIKKQIRLNQEHLQSLTHLGSQINFEVDPPKLPDPDPARKVFFFDIDNTLYRKSTKVQLLMQQSLSNFFKYELGFDDDEAERLIESYYQEYGLSVKGLIKNKQIDDVLQYNTFIDDSLPLQDYLKPDWKLRELLINLKKKKLGKFDKLWLFTNSYKNHAIRCVKILGIADLFDGITYCHYDRPIEEEFICKPDPKFFETAKLQSGLSSFANAWFIDDNESNVRSALSMGMGHVIHLIEDYQYESENIVTKDHKNKQQFSILKDILEIPLIMDVEVYRPSSIAIKEMEELEEEGEAVNWSNQQINVQSS | soluble |
| MAHHHHHHMWGFEAYAEGLSATLNIHGAPLTGVAPQAGESAPLAPPRCLWKKNRNNYLFDAQGKLLSAAEAHSPTIWRTHHAFSGRCALVNPTAPATGGAAAQSFGAPGWAEQAWTAYQSWSVGFRLSSTTTDEPHILLSVAPAYFPNLVSATGEIRKADAATLASLPCAPSAEEEVIYNKRMLETPLIWEEPYALSVECTTHGVFLWSDHWGIFGRKIADRCLEVRQGEVRQSGIATLPSPGPSPSSAAADEELALVAYDAALRLRWSAAGPGSRSSTDGGSARAVAPTLSVELKTGGDAAAGGAAPTCEEKVGEELWQHLVDLPLSLDEVACKAAFRPYVTLMEGGDAVELL | not soluble |
| MGSDKIHHHHHHMNLEEVLNYRRSVRVFDKTKPLDPEKVKHCLELATLAPNSSNMQLWEFYQVIQPELLAKISKACLDQTATSTASEVVVFVTRQDLYRIRAKFVLDFERGNVRRNSPKERQEKRIKDRELYYGKLMPFLYARFFRILGLLRSVLAKAIGLFRPIVREVSESDMRVVVHKSCALAAQTFMIAMANEGYDTCPLEGFDSKQMKKLLKLPHGAEVNMVIACGIRDGNKGIWGERGRVPFDEVYHRV | not soluble |
| AHHHHHHGSFRLRDFEYYNRTVFLRVDLNSPMSNGKIISDARFRAVLPTIKYLIESGAKVVVGTHQGKPYSEEYSTTEEHARILSELLNMHVEYVEDIFGKYARERIKAMKPGEVIVLENLRFSAEEVKNATIEECEKTFFVRKLSQVIDLVVNDAFAAAHRSQPSLVGFARIKPMIMGFLMEKEVDALTKAYESEEKPRVYVLGGAKVDDSLKVAENVLRKEKADLILTGGLVGQLFTLAKGFDLGRENIKFLEKKGILKYVDWAEKILDEFYPYVRTPVDFAIDFKGERVEIDLLSDEKRLFDEYPILDIGSRTVEKYREILLKARIIVANGPMGVFEREEFAVGTIGVFKAIGESPAFSVIGGGHSIASIYKYNITGISHISTGGGAMLTFFAGEKLPVLEALKISYEKFSNLLS | soluble |
| MAYIQLEPLNEGFLSRISGLLLCRWTCRHCCQKCYESSCCQSSEDEVEILGPFPAQTPPWLMASRSSDKDGDSVHTASEVPLTPRTNSPDGRRSSSDTSKSTYSLTRRISSLESRRPSSPLIDIKPIEFGVLSAKKEPIQPSVLRRTYNPDDYFRKFEPHLYSLDSNSDDVDSLTDEEILSKYQLGMLHFSTQYDLLHNHLTVRVIEARDLPPPISHDGSRQDMAHSNPYVKICLLPDQKNSKQTGVKRKTQKPVFEERYTFEIPFLEAQRRTLLLTVVDFDKFSRHCVIGKVSVPLCEVDLVKGGHWWKALIPSSQNEVELGELLLSLNYLPSAGRLNVDVIRAKQLLQTDVSQGSDPFVKIQLVHGLKLVKTKKTSFLRGTIDPFYNESFSFKVPQEELENASLVFTVFGHNMKSSNDFIGRIVIGQYSSGPSETNHWRRMLNTHRTAVEQWHSLRSRAECDRVSPASLEVT | soluble |
| MSLKLNWDKAIDKAIKRYGLRVEPQLISYFSKAGVSYPPKEIALLAFKSERKVELWAKNPSQEWTHIHDYPLTGFSGRLGPKLRENDKQIPEGIYKLVNFNPFSSMHLSMMINYPNSFDRQKGYMDGRKELGNNIFIHGKNLSVGCLAVGDLAIDQLFILARRVGLKNIQVIIAPNDLRYQKPSTSTFAQPRWLPELYKQITESLKPFKKTKFTAEGHHHHHH | soluble |
